These results are taken from article PMC3515998.

This test concerns the target Gαi/o proteins (human (endogenous in HEK293T)) (UniProt P63096).
Chain of UniProt P63096 (P63096 whole entry): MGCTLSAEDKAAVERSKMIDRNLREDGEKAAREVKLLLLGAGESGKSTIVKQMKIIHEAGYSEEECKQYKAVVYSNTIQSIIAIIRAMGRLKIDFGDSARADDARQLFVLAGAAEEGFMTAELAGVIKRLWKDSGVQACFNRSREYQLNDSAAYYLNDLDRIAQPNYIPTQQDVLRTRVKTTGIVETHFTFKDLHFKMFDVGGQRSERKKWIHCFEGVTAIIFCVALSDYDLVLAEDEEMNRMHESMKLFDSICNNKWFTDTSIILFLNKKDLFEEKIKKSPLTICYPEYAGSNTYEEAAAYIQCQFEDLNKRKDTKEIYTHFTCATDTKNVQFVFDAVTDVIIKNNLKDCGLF

On to “Flag-MCHR1 (rat melanin-concentrating hormone receptor 1 with a Flag epitope tag before the first methionine) (from UniProt P97639 1-353)”, for which the EC50 of MCH for stimulation of [35S]GTPγS binding to membranes of transfected HEK293T cells (0.001-1000 nM MCH, 30 min, 30°C) stood at 0.23 nM and the maximal [35S]GTPγS binding to membranes with 1 μM MCH, percent of basal is 208 % of basal.
Turning to “F318K mutant of Flag-tagged rat MCHR1 (from UniProt P97639 1-353) (receptor)”, the EC50 of MCH for stimulation of [35S]GTPγS binding to membranes of transfected HEK293T cells (0.001-1000 nM MCH, 30 min, 30°C) was 0.47 nM; the basal [35S]GTPγS binding to membranes (no MCH), percent of Flag-MCHR1 was 97.6%; the maximal [35S]GTPγS binding to membranes with 1 μM MCH, percent of basal is 191 % of basal.
